Assay [1] concerns the target His-SNAP-Mtb Ku (Mycobacterium tuberculosis) (UniProt P9WKD9). Nature of the assay: SEC.
In a further assay the target is Mtb LigD WT (Mycobacterium tuberculosis, UniProt P9WNV3 1-759). Nature of the assay: […].
Sequence of Mtb LigD WT (P9WNV3 whole entry): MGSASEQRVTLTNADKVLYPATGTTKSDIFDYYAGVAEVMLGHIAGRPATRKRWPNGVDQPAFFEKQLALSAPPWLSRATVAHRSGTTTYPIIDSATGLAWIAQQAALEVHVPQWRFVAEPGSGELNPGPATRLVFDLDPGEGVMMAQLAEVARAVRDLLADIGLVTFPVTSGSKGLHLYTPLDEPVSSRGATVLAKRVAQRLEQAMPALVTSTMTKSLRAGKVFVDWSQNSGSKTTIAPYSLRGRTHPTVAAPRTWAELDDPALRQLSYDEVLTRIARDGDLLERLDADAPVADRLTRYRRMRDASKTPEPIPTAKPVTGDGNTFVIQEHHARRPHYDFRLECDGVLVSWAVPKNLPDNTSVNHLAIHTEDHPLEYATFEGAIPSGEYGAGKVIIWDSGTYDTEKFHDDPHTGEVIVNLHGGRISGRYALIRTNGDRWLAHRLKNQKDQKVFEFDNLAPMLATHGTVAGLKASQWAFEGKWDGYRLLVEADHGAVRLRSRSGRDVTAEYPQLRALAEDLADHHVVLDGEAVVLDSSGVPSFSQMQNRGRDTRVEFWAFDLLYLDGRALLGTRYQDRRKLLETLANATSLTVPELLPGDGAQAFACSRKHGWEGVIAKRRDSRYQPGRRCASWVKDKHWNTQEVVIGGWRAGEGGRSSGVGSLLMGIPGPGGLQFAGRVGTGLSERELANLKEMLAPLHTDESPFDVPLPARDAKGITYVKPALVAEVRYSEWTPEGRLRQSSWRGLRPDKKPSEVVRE

In the case of “His-SNAP-Mtb Ku (from UniProt P9WKD9 1-273) (natural protein)”, the stoichiometry N in assay [1] was 2.

B1: His-SNAP-Mtb Ku (natural protein)
chain: MRAIWTGSIAFGLVNVPVKVYSATADHDIRFHQVHAKDNGRIRYKRVCEACGEVVDYRDLARAYESGDGQMVAITDDDIASLPEERSREIEVLEFVPAADVDPMMFDRSYFLEPDSKSSKSYVLLAKTLAETDRMAIVHFTLRNKTRLAALRVKDFGKREVMMVHTLLWPDEIRDPDFPVLDQKVEIKPAELKMAGQVVDSMADDFNPDRYHDTYQEQLQELIDTKLEGGQAFTAEDQPRLLDEPEDVSDLLAKLEASVKARSKANSNVPTPP
As for B1, the binding result with Mtb LigD WT is recorded as “binds”.

Source of the values: paper doi:10.64898/2025.12.16.694593 (bioRxiv, 2025).
